Experiment: soluble on expression in E. coli; label from the status in PepcDB or PDB records

Row | Sequence | soluble on expression in E. coli
1 | MASHWMIYGANGYTGRLVAEQAQREGLTPLLGGRNPAALHALGSQLGLECRVFDLGDPQACREALDQVKVVAHCAGPFSATSTPMIAACRAAGTHYVDITGEIAVFEQAHAGDAEAREAGIVVCPGVGFDVIPTDCLAACLKEALPDAQRLALGFDTGSGLSTGTAKTSVEGLKFGGKIRENGRLRDVPLGYKRRDIDFGRGLRHAVTIPWGDVATAYYSTGIPDIEVYLPAPPLLALGMRLIDPLRPLLGRQRVQDWLKGQVDKRIAGPDQAARERLRTWVWGEARNARGERRTARLETANVYDLTLHGVLLAVRHLLDYQGPGGYFTPSRLLGARCVESLPGSGRITVIG | not soluble
2 | MESFELEDLTLWLIRDADEAEMWIDRWAVSYPVVQMSEASANGSTEAWQSALQTAFERIQGRHIAVVAHGAGAAAFLAWLYRADILTQKKLAGIILVSPRPDIFPDDAEHTFQRVRCPCRAALVVSEHGGVPHGWAQKQADLWNARLLVSPHSGSLNGMLGGWQWGMKLMQEMLLA | not soluble
3 | LSLTQLSSGNPVYEKYYRQVEAGNTGRVLALDAAAFLKKSGLPDLILGKIWDLADTDGKGVLSKQEFFVALRLVACAQNGLEVSLSSLSLAVPPPRFHD | soluble
4 | MGSDKIHHHHHHMNDIKMIRIGITGGTGFLGNRLVELLSKTNTPITCLTRESSNIETIEDKVKVIKGDLSNLESLEDFVKGQDVIVHLAAQVSRTTKKEYYQSNVLGTENLCKAINQYNPECRLINCSSIAAYRIKGWCKLQFTDYAKSKLSADRVVDSYMKTIKATTIIPGIIYGAGNNAFISAIIENLEKGKLFFAKGGEKFAPLSYIDDLCDLFIRAIYNEESVGNKYFGIKYSERGIHDFIRIIASKTYNKAPDAVLSKNKLMAKAVFWQFVYSFFKIKKAPTLSIRMVDIMSINYSLSEEQRTNNLGWEPSVDMEEGVDNALLSYNLKKDSTNRS | not soluble
5 | MLRSAVSALYRASRSFSETVPRLSATPLGKQEPQLSLSYTCKVCNSREGPKTFAKSSYEKGVVIVTCSGCHNHHIIADNIGWFEDFKGKNIEDHLKTRGEAVKRRDTIKNENGIFEIQK | not soluble
6 | MKQTVAAYIAKTLESAGVKRIWGVTGDSLNGLSDSLNRMGTIEWMSTRHEEVAAFAAGAEAQLSGELAVCAGSCGPGNLHLINGLFDCHRNHVPVLAIAAHIPSSEIGSGYFQETHPQELFRECSHYCELVSSPEQIPQVLAIAMRKAVLNRGVSVVVLPGDVALKPAPEGATMHWYHAPQPVVTPEEEELRKLAQLLRYSSNIALMCGSGCAGAHKELVEFAGKIKAPIVHALRGKEHVEYDNPYDVGMTGLIGFSSGFHTMMNADTLVLLGTQFPYRAFYPTDAKIIQIDINPASIGAHSKVDMALVGDIKSTLRALLPLVEEKADRKFLDKALEDYRDARKGLDDLAKPSEKAIHPQYLAQQISHFAADDAIFTCDVGTPTVWAARYLKMNGKRRLLGSFNHGSMANAMPQALGAQATEPERQVVAMCGDGGFSMLMGDFLSVVQMKLPVKIVVFNNSVLGFVAMEMKAGGYLTDGTELHDTNFARIAEACGITGIRVEKASEVDEALQRAFSIDGPVLVDVVVAKEELAIPPQIKLEQAKGFSLYMLRAIISGRGDEVIELAKTNWLR | soluble
7 | MAHHHHHHMLNITRLRNLPEDLFEVDRRQKNGSNQSGKGWPQHKELIFDFTSLVRAYNQNKFEHLTDTFNNNRILISELVLHQLDEKNKVVRSTDAANAQEDDFHPVRLRDLINFLVTNMTESWLEFQRKGTQEDKQFTQLRCLNENVETPLRLISYALYKKRQGKDVLLVTSDSGLKCEAGLNSIDSQSIENIG | not soluble
8 | PREVLTGGHSVSAPQENRIYVMDSVFMHLTESRVHVYDYTNGKFLGMVPTAFNGHVQVSNDGKKIYTMTTYHERITRGKRSDVVEVWDADKLTFEKEISLPPKRVQGLNYDGLFRQTTDGKFIVLQNASPATSIGIVDVAKGDYVEDVTAAAGCWSVIPQPNRPRSFMTICGDGGLLTINLGEDGKVASQSRSKQMFSVKDDPIFIAPALDKDKAHFVSYYGNVYSADFSGDEVKVDGPWSLLNDEDKAKNWVPGGYNLVGLHRASGRMYVFMHPDGKEGTHKFPAAEIWVMDTKTKQRVARIPGRDALSMTIDQQRNLMLTLDGGNVNVYDISQPEPKLLRTIEGAAEASLQVQFHPVGGT | soluble
